From paper PMC4050180 (FEBS Open Bio, 2014)

B2: GST-DGKα-EF-hand motifs (domain or fragment)
chain: not shown

Assays:
[1] = target: B2; assay: pull-down
[2] = target: T1, 6xHis-TF-DGKα-C1 domains (porcine, UniProt P20192 196-362); assay: pull-down
T1 sequence (looked up): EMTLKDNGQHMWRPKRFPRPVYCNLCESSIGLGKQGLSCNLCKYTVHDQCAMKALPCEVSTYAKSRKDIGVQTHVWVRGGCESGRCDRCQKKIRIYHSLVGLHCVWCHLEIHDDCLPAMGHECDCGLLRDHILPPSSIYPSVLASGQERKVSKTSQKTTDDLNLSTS

B1: EGFP-DGKα-C-terminal region (domain or fragment)
chain: not shown
[1]
  band intensity relative to the RVH domain: ~3 fold

## B2
[2]
  binding result: binds
